Assay results from PMC11811190, “Cryo-EM structures of the BAF-Lamin A/C complex bound to nucleosomes” (Nature Communications, 2025).

Key:
[1] = molecular target: T1, Lamin A/C IgF domain (411-566) (human, UniProt P02545 411-566); assay: cryo-EM structure; BAF-Lamin A/C IgF-nucleosome complex, high gel mobility (fraction 1); BAF 3-fold, Lamin A/C IgF 6-fold over 0.93 uM nucleosome (193 bp DNA), 30 min 30 °C, GraFix with glutaraldehyde; 3.82 Å; conditions: both partners purified
T1 construct: Lamin A/C, human, residues 411-566 (IgF domain); MBP cut on-column with TEV protease; also called Lamin A/C (411-566); Ig-fold domain of Lamin A/C; source: E. coli Rosetta 2 (DE3), purified (amylose resin, Superdex 75); not shown: MBP, N-terminal, cleaved
T1 sequence (looked up): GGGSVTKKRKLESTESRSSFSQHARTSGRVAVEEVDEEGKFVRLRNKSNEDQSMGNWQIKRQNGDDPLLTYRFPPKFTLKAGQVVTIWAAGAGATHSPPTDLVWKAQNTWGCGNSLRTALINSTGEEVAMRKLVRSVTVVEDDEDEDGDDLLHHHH

[2] = molecular target: the molecule itself; assay: as above

binding result [1]: binds
B1: Barrier-to-autointegration factor (BAF) (natural protein, human, UniProt O75531 1-89, looked up)
chain: MTTSQKHRDFVAEPMGEKPVGSLAGIGEVLGKKLEERGFDKAYVVLGQFLVLKKDEDLFREWLKDTCGANAKQSRDCFGCLREWCDAFL
notes: Barrier-to-autointegration factor (BAF), human, full length; His tag cut with thrombin; also called human BAF; full-length BAF; not shown: His6, N-terminal, cleaved
binding result [2]: binds
